9 molecules from patent US20140112915A1 (Novartis, published 2014) can be followed below.

Positions count from the first letter of the chain named. Read-outs that look alike come from different tables or passages of the source.

Usually Kd stands for a measure of binding affinity in units of concentration.

Assay [1] addresses T1, IL-18/IL-18BP complex (human, UniProt O95998 31-194, biotinylated in the first ELISA setup, unbiotinylated in the second).
T1 construct: also called biotinylated IL-18/IL18-BP complex; not shown: human IgG1 Fc tag
T1 sequence 1: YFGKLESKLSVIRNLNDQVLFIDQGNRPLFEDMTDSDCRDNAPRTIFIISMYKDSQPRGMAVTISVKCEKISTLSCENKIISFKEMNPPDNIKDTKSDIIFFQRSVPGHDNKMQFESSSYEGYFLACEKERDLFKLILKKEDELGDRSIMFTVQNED
T1 sequence 2: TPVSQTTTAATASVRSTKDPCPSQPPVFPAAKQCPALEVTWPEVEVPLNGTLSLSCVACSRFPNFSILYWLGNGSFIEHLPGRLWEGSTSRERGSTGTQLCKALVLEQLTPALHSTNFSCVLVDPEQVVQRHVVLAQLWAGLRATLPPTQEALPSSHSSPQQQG
Put plainly: ELISA, first set-up: antibody titrated and incubated with the biotinylated human IL-18/rhIL-18BP-Fc complex, captured on NeutrAvidin plate, AP-labelled anti-human F(ab)2, AttoPhos fluorescence [A]. For orientation: In an ELISA, binding on a coated surface is turned into a signal by an enzyme label.

For assay [2], the target named is T2, Native human IL-18 (human, UniProt Q14116 37-193).
T2 sequence: T1 sequence 1
Description: cell-based or functional assay.

For assay [3], the target named is T3, Recombinant human IL-18 (human, UniProt Q14116 37-193).
T3 sequence: T1 sequence 1
Description: cell-based or functional assay.

Assay [4] concerns the target T3, Recombinant human IL-18. Put plainly: solution equilibrium titration (SET), ECL detection.
The target in assay [5] is T4, Recombinant cynomolgus IL-18 (cynomolgus monkey, UniProt Q14116 37-193 (human entry)).
T4 chain: T1 sequence 1 with V11I, S50N, T63A, K79R, F134Y, E141K
Description: cell-based or functional assay.

The target in assay [6] is T4, Recombinant cynomolgus IL-18. Description: solution equilibrium titration (SET), ECL detection; value in brackets = cynomolgus IL-18; bracketed value.
Assay [7] has as its target T2, Native human IL-18. Description: cell-based or functional assay. The source holds these as a separate data set.
For assay [8], the target named is T3, Recombinant human IL-18. Description: cell-based or functional assay. The source holds these as a separate data set.
For assay [9], the target named is T3, Recombinant human IL-18. Put plainly: solution equilibrium titration (SET), ECL detection; human IL-18; unbracketed value, column Hu IL-18.
The target in assay [10] is T4, Recombinant cynomolgus IL-18. Put plainly: cell-based or functional assay.
In assay [11] the target is T1, IL-18/IL-18BP complex. Put plainly: ELISA, second set-up: unbiotinylated human IL-18/rhIL-18BP-Fc complex captured on Maxisorp plate through the Fc tag by goat anti-human IgG Fc, antibody titrated, AttoPhos fluorescence [B].
Assay [12] concerns the target T2, Native human IL-18. Put plainly: cell-based or functional assay. The source holds these as a separate data set.
Assay [13] addresses T3, Recombinant human IL-18. Description: cell-based or functional assay. The source holds these as a separate data set.

B1: MOR08776 (antibody, human IgG1, lambda, V domains shown)
VH: QVQLQESGPGLVKPGETLSLTCTVSGGSISTGSYYWNWIRQAPGKGLEWIGEINHMGITYYNPSLKGRVTISVDTSKNQFSLKLSSVTAEDTAVYYCARTTRYWMSHILAYGMDYWGQGTLVTVSS
VL: DIVLTQPPSVSGAPGQRVTISCSGSSSNIGNHYVSWYQQLPGTAPKLLIYANTKRPSGVPDRFSGSKSGTSASLAITGLQSEDEADYYCSSYDGSQSIVFGGGTKLTVLG
notes: also called MOR8776
For the molecule B1, the binding result in assay [1] is on record as “no binding (tested: about 800 nM)”. For the same molecule, the “IC50, inhibition of IFN-γ release, PBMC, Native IL-18 (LPS/IL-12)” value (“IC50, inhibition … (LPS/IL-12)” below) in assay [2] was 5.9 nM. For the same molecule, in [3], the “IC50, inhibition of IFN-γ release, KG-1 cells, Hu IL-18 (1 nM)” value (“IC50, inhibition of IFN-γ release … (1 nM)” below) was determined as 18 nM and the “IC50, inhibition of IFN-γ release, PBMC, Hu IL-18 (recombinant)” value (shortened to “IC50, inhibition … (recombinant)”) was 50.8 nM. Further, the equilibrium dissociation constant (Kd) in assay [4] came to 0.038 nM.

B2: MOR13363 (antibody, human IgG1, kappa, L234A L235A, V domains shown)
VH: QVQLLESGGGLVQPGGSLRLSCAASGFTFSSYAIHWVRQAPGKGLEWVSVISGEGSNTYYADSVKGRFTISRDNSKNTLYLQMNSLRAEDTAVYYCARVMIGYGFDYWGQGTLVTVSS
VL: DIQMTQSPSSLSASVGDRVTITCRASQSIFNYLNWYQQKPGKAPKLLIYDSSTLQSGVPSRFSGSGSGTDFTLTISSLQPEDFATYYCLQYSGFLFTFGQGTKVEIKR
Take B2: the “IC50, inhibition … (LPS/IL-12)” value in [2] was found to be 0.18 nM. For the same molecule, the “IC50, inhibition of IFN-γ release, KG-1 cells, Hu IL-18 (0.5 nM)” value (“IC50, inhibition of IFN-γ release … (0.5 nM)” below) in [3] amounted to 0.49 nM. In addition, the “IC50, inhibition of IFN-γ release, KG-1 cells, Cyno IL-18 (0.2 nM)” value (“IC50, inhibition of IFN-γ release … (0.2 nM)” below) in assay [5] was found to be 0.28 nM. In addition, the dissociation constant (Kd) in assay [6] and in assay [9] was 0.01 nM in each case. Besides, the “IC50, inhibition of IFN-γ release, human whole blood, LPS/IL-12 (native IL-18)” value (“IC50, inhibition … (native IL-18)” below) in assay [7] came to 91.7 nM. In addition, the “IC50, inhibition of IFN-γ release, human whole blood, recombinant human IL-18 (7 nM)” value (“IC50, inhibition of IFN-γ release … (7 nM)” for short) in assay [8] is 29.4 nM.

B3: MOR13341 (antibody, human IgG1, kappa, L234A L235A, V domains shown)
VH: QVQLVQSGAEVKKPGSSVKVSCKASGGTFSTFSISWVRQAPGQGLEWMGGIIPIFGTANYAQKFQGRVTITADESTSTAYMELSSLRSEDTAVYYCARGGYGGYYYFDYWGQGTLVTVSS
VL: B2 VL with F30S, Y32R, D50K, S51G, L89Q, Y91H, S92K, G93V, F94W, F96T
With B3, the “IC50, inhibition … (LPS/IL-12)” value in assay [2] is 0.8 nM. Further, in assay [3], the “IC50, inhibition of IFN-γ release … (0.5 nM)” value was determined as 0.13 nM. The “IC50, inhibition of IFN-γ release … (0.2 nM)” value in assay [5] stood at 2.8 nM. Besides, the figures for the dissociation constant Kd in [6] and in [9] were 0.03 nM and 0.003 nM, respectively. For the same molecule, the “IC50, inhibition … (native IL-18)” value in assay [7] worked out at 19.6 nM. Also, the “IC50, inhibition of IFN-γ release … (7 nM)” value in assay [8] was 5.6 nM.

B4: MOR13361 (antibody, human IgG1, kappa, L234A L235A, V domains shown)
VH: B2 VH with V50T, S52Q, G53S, E54S, S56E, T58K, Y59F
VL: B2 VL with L89H, F94L
Consider B4, for which the “IC50, inhibition … (LPS/IL-12)” value in assay [2] was found to be 0.5 nM. Moreover, in assay [3], the “IC50, inhibition of IFN-γ release … (0.5 nM)” value turned out to be 0.41 nM. For the same molecule, in [5], the “IC50, inhibition of IFN-γ release … (0.2 nM)” value was found to be 0.13 nM. Also, the results for the dissociation constant (Kd) in assay [6] and in [9] were 0.006 nM and 0.007 nM, respectively. For the same molecule, the “IC50, inhibition … (native IL-18)” value in assay [7] turned out to be 39.4 nM. For the same molecule, in assay [8], the “IC50, inhibition of IFN-γ release … (7 nM)” value turned out to be 15.7 nM.

B5: MOR09465 (antibody, human IgG1, lambda, L234A L235A, V domains shown)
VH: EVQLVQSGAEVKKPGSSVKVSCKASGGTFNSYAISWVRQAPGQGLEWMGNIIPHYGFAYYAQKFQGRVTITADESTSTAYMELSSLRSEDTAVYYCARAAYHPLVFDNWGQGTLVTVSS
VL: DIVLTQPPSVSGAPGQRVTISCSGSSSNIGNHYVNWYQQLPGTAPKLLIYRNNHRPSGVPDRFSGSKSGTSASLAITGLQSEDEADYYCQSWDYSGFSTVFGGGTKLTVLG
notes: also called MOR9465
As for B5, the “IC50, inhibition … (LPS/IL-12)” value in [2] was 0.89 nM. Besides, in assay [3], the “IC50, inhibition of IFN-γ release … (1 nM)” value is 0.3 nM and the “IC50, inhibition … (recombinant)” value was 0.6 nM. In assay [5], the “IC50, inhibition of IFN-γ release, KG-1 cells, Cyno IL-18” value was found to be 1.8 nM. For the same molecule, the “IC50, inhibition of IFN-γ production, cynomolgus whole blood, recombinant cynomolgus IL-18 (7 nM)” value (“IC50, inhibition of IFN-γ production” below) in assay [10] was 55 nM. In assay [4], the dissociation constant Kd amounted to 0.006 nM. Further, the “IC50, inhibition … (native IL-18)” value in assay [7] stood at 19.4 nM. Besides, the “IC50, inhibition of IFN-γ release … (7 nM)” value in [8] turned out to be 4.2 nM. In addition, the binding result in assay [11] is given as “no binding (tested: about 400 nM)”.

B6: MOR09464 (antibody, human IgG1, lambda, L234A L235A, V domains shown)
VH: B5 VH with H54M, Y55T, F57Q, A58T
VL: B5 VL
notes: also called MOR9464
B6: the “IC50, inhibition … (LPS/IL-12)” value in assay [2] is 0.2 nM. In addition, in [3], the “IC50, inhibition of IFN-γ release … (1 nM)” value stood at 0.8 nM and the “IC50, inhibition … (recombinant)” value was determined as 1.3 nM. Also, the “IC50, inhibition of IFN-γ release, KG-1 cells, Cyno IL-18” value in assay [5] is 8.3 nM. Moreover, in assay [10], the “IC50, inhibition of IFN-γ production” value worked out at 51 nM. In addition, in assay [4], the Kd worked out at 0.003 nM. Besides, the “IC50, inhibition … (native IL-18)” value in assay [7] is 9.8 nM. The “IC50, inhibition of IFN-γ release … (7 nM)” value in [8] came to 3.6 nM. The binding result in [11] is given as “no binding (tested: about 400 nM)”.

B7: MOR09441 (antibody, human IgG1, lambda, L234A L235A, V domains shown)
VH: EVQLVQSGAEVKKPGSSVKVSCKASGGTFNSYAISWVRQAPGQGLEWMGWINPFYIGETFYAQKFQGRVTITADESTSTAYMELSSLRSEDTAVYYCARAAYHPLVFDNWGQGTLVTVSS
VL: B5 VL
notes: also called MOR9441
On to B7, for which the “IC50, inhibition … (LPS/IL-12)” value in assay [2] came to 0.45 nM. Besides, in [3], the “IC50, inhibition of IFN-γ release … (1 nM)” value was determined as 0.6 nM and the “IC50, inhibition … (recombinant)” value is 2.5 nM. In addition, the “IC50, inhibition of IFN-γ release, KG-1 cells, Cyno IL-18” value in [5] stood at 16.4 nM. Moreover, the “IC50, inhibition of IFN-γ production” value in [10] is 110 nM. In addition, in assay [4], the Kd came out at 0.001 nM. Moreover, the “IC50, inhibition … (native IL-18)” value in assay [7] is 16.3 nM. Besides, in [8], the “IC50, inhibition of IFN-γ release … (7 nM)” value was 8 nM. In addition, the binding result in assay [11] is listed as “no binding (tested: about 400 nM)”.

B8: MOR09466 (antibody, human IgG1, lambda, L234A L235A, V domains shown)
VH: B5 VH with H54Y, Y55S
VL: B5 VL
notes: also called MOR9466
Take B8: the “IC50, inhibition … (LPS/IL-12)” value in [2] was 2.1 nM. Also, in assay [3], the “IC50, inhibition of IFN-γ release … (1 nM)” value was found to be 0.4 nM and the “IC50, inhibition … (recombinant)” value amounted to 1.2 nM. Also, the “IC50, inhibition of IFN-γ release, KG-1 cells, Cyno IL-18” value in [5] is 5.6 nM. Further, the “IC50, inhibition of IFN-γ production” value in assay [10] was 179 nM. Besides, the Kd in assay [4] turned out to be 0.005 nM. Besides, the “IC50, inhibition … (native IL-18)” value in assay [7] worked out at 18.5 nM. Besides, the “IC50, inhibition of IFN-γ release … (7 nM)” value in assay [8] was found to be 5.6 nM. In assay [11], the binding result is listed as “no binding (tested: about 400 nM)”.

B9: MOR10222_E1Q_N30S_M54I (antibody, human IgG1, lambda, L234A L235A, V domains shown)
VH: B5 VH with E1Q, N30S, H54I, Y55T, F57Q, A58T
VL: B5 VL with D1Q, I2S, V10A, A13T, T77S
In the case of B9, the “IC50, inhibition … (LPS/IL-12)” value in [2] and in assay [12] was 0.05 nM each time. For the same molecule, the “IC50, inhibition of IFN-γ release … (1 nM)” value came out at 4.21 nM in assay [3] and 4.2 nM in [13]. Moreover, the “IC50, inhibition of IFN-γ release, KG-1 cells, Cyno IL-18” value in [5] was found to be 8.12 nM. The Kd in [6] turned out to be 0.03 nM; in assay [9], 0.003 nM. For the same molecule, the “IC50, inhibition … (native IL-18)” value in assay [7] amounted to 9.3 nM. Moreover, the “IC50, inhibition of IFN-γ release … (7 nM)” value in assay [8] came to 47.3 nM.
